Measurements: US20260085127A1 (BRIGHTPATH BIOTHERAPEUTICS, published 2026)
Substitutions are numbered along the chain they refer to. Names may count otherwise.

T1: human CD39 (Accession No. NM_001776.6) expressed on cells (human, UniProt P49961 1-510)
T1 construct: whole, on cells; On Jurkat, 293T or SK-MEL28 cells; also called Jurkat/CD39; 293T/CD39
T1 sequence (looked up): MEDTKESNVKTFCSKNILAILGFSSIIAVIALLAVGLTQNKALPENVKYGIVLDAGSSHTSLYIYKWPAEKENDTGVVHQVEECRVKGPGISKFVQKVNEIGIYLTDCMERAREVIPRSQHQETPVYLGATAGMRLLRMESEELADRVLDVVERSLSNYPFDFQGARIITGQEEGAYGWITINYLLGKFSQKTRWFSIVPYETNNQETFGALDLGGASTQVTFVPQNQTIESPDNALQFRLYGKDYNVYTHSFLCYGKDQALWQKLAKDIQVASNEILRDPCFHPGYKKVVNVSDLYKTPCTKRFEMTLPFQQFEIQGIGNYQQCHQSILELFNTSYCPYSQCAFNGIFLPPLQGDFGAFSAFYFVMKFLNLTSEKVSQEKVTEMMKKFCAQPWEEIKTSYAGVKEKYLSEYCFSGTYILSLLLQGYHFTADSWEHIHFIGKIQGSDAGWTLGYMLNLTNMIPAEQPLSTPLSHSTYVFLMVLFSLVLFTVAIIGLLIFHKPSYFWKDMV

T2: recombinant human CD39 (in-house product, 38 to 478 aa of Accession No. NM_001776.6) (human, UniProt P49961 38-478)
T2 construct: also called rhCD39; human CD39-ECD; not shown: Myc and His tags at the C-terminus are named only for the PE-lab
T2 sequence (looked up): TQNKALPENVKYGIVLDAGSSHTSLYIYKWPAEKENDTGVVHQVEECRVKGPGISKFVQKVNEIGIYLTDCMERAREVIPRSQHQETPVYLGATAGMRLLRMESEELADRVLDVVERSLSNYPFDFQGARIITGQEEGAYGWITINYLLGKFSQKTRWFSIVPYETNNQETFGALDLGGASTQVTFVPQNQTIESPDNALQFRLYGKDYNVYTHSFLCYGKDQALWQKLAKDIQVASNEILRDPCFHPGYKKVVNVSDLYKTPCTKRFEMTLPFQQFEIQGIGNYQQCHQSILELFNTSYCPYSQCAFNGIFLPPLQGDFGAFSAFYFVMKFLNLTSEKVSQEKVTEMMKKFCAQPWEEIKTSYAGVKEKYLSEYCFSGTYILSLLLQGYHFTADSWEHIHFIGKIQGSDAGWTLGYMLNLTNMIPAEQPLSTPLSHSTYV

B1: T86_LA (antibody, V domains shown)
VH: QIQLVQSGPELKKPGETVKISCEASGYTFINYGMNWVKQAPGKGLKWMGWINTYTGEPTYADDFKGRFAFSLETSANTAYLQINNLKNEDTATYFCARKGYYGYPNYYAMDYWGQGTSVTVSS
VL: DIVMTQSQKFMSTSVGDRVSITCKASQNVGTAVAWYQQKPGQSPKLLIYSASNRYTGVPDRFTGSGSGTDFTLTISNMQSEDLADYFCQQYSSYPITFGTGTKLEIK
notes: also called IgG1-LALA antibody of anti-CD39 antibody T86
B2: T86_Hu003_Ct (bispecific antibody)
chain 1: QIQLVQSGPELKKPGETVKISCEASGYTFINYGMNWVKQAPGKGLKWMGWINTYTGEPTYADDFKGRFAFSLETSANTAYLQINNLKNEDTATYFCARKGYYGYPNYYAMDYWGQGTSVTVSSGGGGSGGGGSGGGGSGGGGSDIVMTQSQKFMSTSVGDRVSITCKASQNVGTAVAWYQQKPGQSPKLLIYSASNRYTGVPDRFTGSGSGTDFTLTISNMQSEDLADYFCQQYSSYPITFGTGTKLEIK
chain 2: QVQLQESGGGLVKPGGSLKLSCAASGFTFSSYYMSWVRQTPDKRLEWVATISNSGGSTYYPDSVKDRFTISRDNAKNTLYLQMSSLKSEDTAMYYCARDPYYTNYVPMDYWGQGTMVTVSSGGGGSGGGGSGGGGSGGGGSDIVMTQSPSFLSASVGDRVTITCKASQYVDTYVAWYQQRPGKAPKPLIYSASTRHTGVPSRFSGSGSGTEFTLTISSLQPEDFATYFCAQYSSSPLTFGGGTKLELK
B3: I67_Hu003_Ct (bispecific antibody)
chain 1: DVQLQESGPSLVQPSQSLSINCTVSGFSLSSYGVHWVRQSPGKGLEWLGVIWRRGSTDYNAAFMSRLSITKDNSKSQVFFKMNRLQADDTATYYCAKGISTATSWFAYWGQGTLVTVSAGGGGSGGGGSGGGGSGGGGSDIVMTQSHKFMSTSVGDRVSVTCKASQNVGTNVAWYQQKPGQSPKALIYSASYRYSGVPDRFTGSGSGTDFTLTISNVQSEDLAEYFCQQYNSYPLTFGAGTKLELK
chain 2: B2 chain 2
B4: T86_sc (antibody)
scFv: B2 chain 1
notes: scFv-Fc homodimer, anti-CD39 (mouse variable regions); also called scFv-Fc homodimeric antibody of anti-CD39_scFv antibody T86; not shown: linker and Fc-LALA (human IgG1 Fc with L234A and L235A)
B5: mAnE67_Hu003_Ct (bispecific antibody)
chain 1: EVQLVESGGGLVKPGGSRKLSCAASGFTFSDYGMHWVRQAPEKGLEWVAYISSGSSIIYYADTVKGRFTISRDNAKNTLFLQMTGLRSEDTAMYYCARKDYPYAMDYWGQGTSLAVSSGGGGSGGGGSGGGGSGGGGSSIVMTQTPKFMSTSVGDRVSVTCKASQNVGTNVAWYQQKPGQSPKALIYWASNRFTGVPDRFTGSGSGTDFTLTISNVQSEDLADYFCQQYSSSPYTFGSGTKLEIK
chain 2: B2 chain 2
B6: 6-3hIG_Hu003_Ct (bispecific antibody)
chain 1: QVQLVQSGAELVKPGASVKLSCKASGFSIKDTYVHWVKQAPGKGLEWIGKIDPANVNTKFDPKFQGRVTITADTSTNTAYLQLSSLRSEDTAVYYCALYGYDDDAYYFDYWGQGTLVTVSSGGGGSGGGGSGGGGSGGGGSEIVLTQSPASLSVSPGERATISCRASESVDNYGISFMNWFQQKPGQAPKLLIYAASNQGSGVPARFSGSGSGTDFTLTISSLEPEDFAVYYCQQSKEVPYTFGQGTKLEIK
chain 2: B2 chain 2
B7: Tre291_Hu003_Ct (bispecific antibody)
chain 1: QVQLKQSGPGLVQPSQSLSITCTVSGFSLTSYGVHWVRQSPGKGLEWLGVIWRRGSTDYNAAFMSRLSITKDTSKSQVFFKMNSLQTDDTAIYYCAGVRGDAMDYWGQGTSVTVSSGGGGSGGGGSGGGGSGGGGSDIVMTQSHKSMSTSVGDRVSVTCKASQNVGTNVAWYQQKPGQSPKALIYSASYRYSGVPDRFTGSGSGTDFTLTISNVQSEDLAEYFCQQYNSYPLTFGGGTKLEIK
chain 2: B2 chain 2
B8: I67_sc (antibody)
scFv: B3 chain 1
notes: scFv-Fc homodimer, anti-CD39 (mouse variable regions); also called scFv-Fc homodimeric antibody of anti-CD39_scFv antibody I67; not shown: linker and Fc-LALA (human IgG1 Fc with L234A and L235A)
B9: mAnE67_LA (antibody, V domains shown)
VH: EVQLVESGGGLVKPGGSRKLSCAASGFTFSDYGMHWVRQAPEKGLEWVAYISSGSSIIYYADTVKGRFTISRDNAKNTLFLQMTGLRSEDTAMYYCARKDYPYAMDYWGQGTSLAVSS
VL: SIVMTQTPKFMSTSVGDRVSVTCKASQNVGTNVAWYQQKPGQSPKALIYWASNRFTGVPDRFTGSGSGTDFTLTISNVQSEDLADYFCQQYSSSPYTFGSGTKLEIK
notes: also called IgG1-LALA antibody of anti-CD39 antibody mAnE67
B10: Tre_291_sc (antibody)
scFv: B7 chain 1
notes: scFv-Fc homodimer, anti-CD39 (mouse variable regions); not shown: linker and Fc-LALA (human IgG1 Fc with L234A and L235A)
B11: I67_LA (antibody, V domains shown)
VH: DVQLQESGPSLVQPSQSLSINCTVSGFSLSSYGVHWVRQSPGKGLEWLGVIWRRGSTDYNAAFMSRLSITKDNSKSQVFFKMNRLQADDTATYYCAKGISTATSWFAYWGQGTLVTVSA
VL: DIVMTQSHKFMSTSVGDRVSVTCKASQNVGTNVAWYQQKPGQSPKALIYSASYRYSGVPDRFTGSGSGTDFTLTISNVQSEDLAEYFCQQYNSYPLTFGAGTKLELK
notes: also called IgG1-LALA antibody of anti-CD39 antibody I67
B12: Tre291_LA (antibody, V domains shown)
VH: QVQLKQSGPGLVQPSQSLSITCTVSGFSLTSYGVHWVRQSPGKGLEWLGVIWRRGSTDYNAAFMSRLSITKDTSKSQVFFKMNSLQTDDTAIYYCAGVRGDAMDYWGQGTSVTVSS
VL: B11 VL with F10S, A100G, L106I

Columns and labels:
[1] = biological target: T1, human CD39 (Accession No. NM_001776.6) …; experiment: flow cytometry, 293T/CD39 cells, KD from MFI
[2] = biological target: T1, human CD39 (Accession No. NM_001776.6) …; experiment: flow cytometry, 293T/TIM-3 + CD39 cells, KD from MFI
[3] = biological target: T2, recombinant human CD39 (in-house …); experiment: SPR Biacore8K, antibody captured on anti-human IgG, antigen as analyte
[4] = biological target: T3, biotinylated human TIM-3-Fc antigen (in-house product, SEQ ID No: 118) (human, biotinylated); experiment: flow cytometry, inhibition of biotinylated TIM-3-Fc binding to phosphatidylserine on apoptotic Jurkat cells
[5] = biological target: T4, human TIM-3 (Accession No. JX049979.1) stably expressed on cells (human, UniProt Q8TDQ0 22-301); experiment: flow cytometry, Jurkat/TIM-3 cells, KD from MFI
T4 construct: whole, on cells; On Jurkat or 293T cells; also called Jurkat/TIM-3; 293T/TIM-3

[6] = biological target: T1, human CD39 (Accession No. NM_001776.6) …; experiment: flow cytometry, Jurkat/CD39 cells, KD from MFI
[7] = biological target: T3, biotinylated human TIM-3-Fc antigen …; experiment: competition ELISA: human Galectin-9 coated, biotinylated human TIM-3-Fc pre-mixed with the antibody dilution series, Streptavidin-HRP, A450; blocked ligand: human Galectin-9
[8] = biological target: T1, human CD39 (Accession No. NM_001776.6) …; experiment: flow cytometry, Jurkat/TIM-3 + CD39 cells, KD from MFI

Row | Kd [1] [nM] | Kd [2] [nM] | Kd [3] [nM] | IC50 [4] [nM] | Kd [5] [nM] | Kd [6] [nM] | IC50 (read off the curve) [7] [nM] | koff [3] [s⁻¹] | kon [3] [M⁻¹ s⁻¹] | Kd [8] [nM] | Binder
1 | 2.67 | 5.09 | – | – | – | – | – | – | – | – | B1
2 | – | – | 1.74 | 30.8 | 2.77 | 18.8 | ~2 | – | – | – | B2
3 | – | – | 1.63 | 27.2 | 1.86 | 14.1 | ~2 | – | – | – | B3
4 | 3.56 | 16.9 | 4.28 | – | – | 2.18 | – | 0.000823 | 192000 | 2.25 | B4
5 | – | – | 2.26 | 24.7 | 1.49 | 2.69 | – | – | – | – | B5
6 | – | – | 0.355 | 16.1 | 1.92 | 237 | ~2 | – | – | – | B6
7 | – | – | 2.79 | 28.3 | 2.13 | 22.6 | ~1 | – | – | – | B7
8 | 2.37 | 6.8 | 1.65 | – | – | 0.329 | – | 0.00294 | 1.78e+06 | 0.208 | B8
9 | 1.8 | 3.66 | – | – | – | – | – | – | – | – | B9
10 | 2.43 | 7.15 | 2.22 | – | – | 0.8 | – | 0.0031 | 1.4e+06 | 0.922 | B10
11 | 1.73 | 4.19 | – | – | – | – | – | – | – | – | B11
12 | 2.44 | 4.79 | – | – | – | – | – | – | – | – | B12
